The data set addresses T1, MBP-RAD51AP1-His6 WT (UniProt Q96B01 1-352).
T1 sequence: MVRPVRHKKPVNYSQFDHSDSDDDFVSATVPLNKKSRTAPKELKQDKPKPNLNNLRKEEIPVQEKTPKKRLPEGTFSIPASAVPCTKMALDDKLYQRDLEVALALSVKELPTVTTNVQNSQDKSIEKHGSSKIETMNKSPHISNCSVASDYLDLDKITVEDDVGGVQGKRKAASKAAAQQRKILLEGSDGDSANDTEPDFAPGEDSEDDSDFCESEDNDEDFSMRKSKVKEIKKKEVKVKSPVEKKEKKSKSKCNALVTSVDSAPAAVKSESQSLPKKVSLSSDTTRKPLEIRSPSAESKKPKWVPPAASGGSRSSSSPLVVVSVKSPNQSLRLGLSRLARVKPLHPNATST
Description: EMSA. Background: Mobility shift assays separate free from complexed probe on a gel.

B1: TERRA R-loop (mixed)
DNA 1: CATTGCATATTTAAAACATGTTGGATCTCAATTTCTATTTTATTTTTATTTTTTATTTCTTTATTTTACCATGAATTCAAATGACCTCTTATCAAGTGAC
DNA 2: GTCACTTGATAAGAGGTCATTTGAATTCATCCTAACCCTAACCCTAACCCTAACCCTAACCCTAACCCTAAGAGATCCAACATGTTTTAAATATGCAATG
RNA: UUAGGGUUAGGGUUAGGGUUAGGGUUAGGGUUAGGGUUAG
As to B1, the binding result is listed as “binds”.

These data come from paper PMC9713952.
